B1: CM29 recombinant plasma mAb (subject P3, Lin.1) (antibody, V domains shown)
VH: QVQLVESGGGVVQPGRSLRLSCAASGFTLSKYGMHWVRQAPDKGLEWVALMSYDGSIKYYGDSVKGRFTVSRDSSKNTLYLQMNNLRDDDTAVYFCARGAMAGNSSFDHWGQGTLVTVSS
VL: not shown
B2: CM31 recombinant plasma mAb (subject P3, Lin.3) (antibody, V domains shown)
VH: QVTLKESGPTLVKPTQTLTLTCTVSGFSLSTNGVGVAWVRQPPGKALEWLGLIYWDDAQRYGPSLKSRLTITKDTSKNQVVLTLTNMDPVDTGTYYCSHVWVNSTHRQIDYWGQGTLVTVSS
VL: QPVLTQPPSSSASPGESARLTCTLPSDFNVGSYNIYWYQKRPGSPPRYLLYYYSDSDKGQGSGVPSRFSGSKDASANTGILLISGLQSEDEADYYCMIWPINGVVFGGGTKLTVL
B3: CM30 recombinant plasma mAb (subject P3, Lin.2) (antibody, V domains shown)
VH: QVQLVESGGGLVKPGGSLRLSCAASGFTFSDYYMSWIRQAPGKGLEWVSSIDGSTSYTKYADSVKGRFTISRDNAKNSLYLQMNSLRAEDTAVYYCARVGPAVAGSPFDSWGQGTLVTVSS
VL: EIVLTQSPATLSLSPGERATLSCRASQSVSTYLAWYQQKPGQAPRLLIFDASNRATGIPARFSGSGSGTDFTLTISSLEPEDFAVYYCQQRSNWLFSFGPGTKVDIK
B4: CM32 recombinant plasma mAb (subject P3, Lin.4) (antibody, V domains shown)
VH: QVQLVQSGPEVKKPGASVKVSCQTSGYSFSDHYLHWVRQTPGQGFEWMGWIKPKSGATNSADNFQDRVTMTADASVNTAYMELSSLRPDDTAVYYCARGHRIPSAISDKYDFWGQGTLVTVSS
VL: QSVLTQPASVSASPGQSITISCTGTSSDVGGYDYVSWYQHHPDNAPKLLIFEVSNRPSGVSNRFSGSKSGNAASLTISGLLAEDEADYFCTSYSSGRTPYVFGTGTKVTVL

Target: SARS-CoV-2 spike ectodomain, HexaPro variant (SARS-CoV-2, Wuhan-Hu-1 (MN908947), stabilised)
Test: BLI

Row | Binder | Kd [nM]
1 | B1 | 6.6
2 | B2 | 37.7
3 | B3 | 0.8
4 | B4 | 6

Source: article doi:10.1101/2020.12.20.423708 (bioRxiv, 2020)
